Reference: the DeepSol protein solubility set

Test: soluble on expression in E. coli; label from the status in PepcDB or PDB records

Sequence | soluble on expression in E. coli
MNTNHYYIRYGCAITLYDNHVSERERLTPKELRFSIEKAVSSFRIQAQEPFSPGSKARFSFVKRKDGNTKNGIFLSPHIVTKDMHAQKVWTKASKFLEIDYLGKDNEREGLLKKDNVSMSNIPISGEYLTFGEKDTGRGSAKISVEEQTYGLITTLTPLKPALQVGKDNFCIIPDIPLNQMVDFIALFDKMQITHLSGEAMLGNIDNKGIPHRPKIFRGNFPNSPKSDRMGAIALLGAIGEFAKHAEFSTLAQKVLDSLKGST | not soluble
MGSDKIHHHHHHMSSGLYLYGIFPDPIPETVTLQGLDSQLVYSQIIDGFTFLYSEAKQEKYLASRRNLISHEKVLEQAMHAGFRTLLPLRFGLVVKNWETVVTQLLQPYKAQLRELFQKLAGRREVSVKIFWDSKAELQAMMDSHQDLKQKRDQMEGKALSMEEVIHIGQLIESNLLSRKESIIQVFFDELKPLADEVIESDPMTEDMIYNAAFLIPWENESIFSQQVESIDHKFDERLRIRYNNFTAPYTFAQIS | not soluble
SNAMSKKAELAELVKELAVVHGKVTLSSGKEADYYVDLRRATLHARASRLIGELLRELTADWDYVAVGGLTLGADPVATSVMHADGREIHAFVVRKEAKKHGMQRRIEGPDVVGKKVLVVEDTTTTGNSPLTAVKALREAGAEVVGVATVVDRATGAADVIAAEGLEYRYILGLEDLGLA | soluble
MIKTFKSKALAELYETGSSSKTDKKLFKRIIVRLDRLNVAEKPEEMNLPGFNFHALIGFHPIRYTVHINGPWCITFEFDSCNAYRVDLEQYH | not soluble
MTTFPILRLPEKSLKIAIRCLTMEQIIKFSLISESTKRTAESLNLQADPFWICFGESVHISVHANFVENYQQDIPWNPVEVDLRTLLDHFQSVLHTNKFEYFFV | not soluble
MGSDKIHHHHHHMRKAERLNDMMLFLNDKNSFQLSDIMAKYGVSRSTAIRDIQSLEEIGMPIYSERGRNGHYRVLRNRLLSPIVFNIDEVFALYFSMLTLKAYETTPFHLSVEKLKTKFERCLSAEKIEMLRKIEEVFSLGYIKHNNQCEFLDVILQFTMEEKVCQINYDNNGTEKTYIVQFYNISSAYGQWYVTSYNFETKRMQVFRCDKILALKENDTFEAKKMEELKGVADSFNKKADVTTFEVEIASNGVDLFFKENYPSMKLRQQEGRNCIHGFYHKGEERFIINYLLGYGEKIIAIQPDSLRDMLLNELDTIKKHMQNLSS | not soluble
MGSDKIHHHHHHMSLKAKLARKFVYAVFPDVRKYTSIKPAFENSPDSPEGRLVPEVVALYGKPGVHILKMALVLPYLVGTAYYARKSVTSVRRNPGKGKKTAPPEFFEELESYAKSLGVLKVGYTKLTPELVFSNRAVLFENAIVLIGEMRKKEIAKAPGVRAGMEVWRTYYRLTRAAYKIAEFLRERGYNAQPDPAVGRSTNFPLLAQKAGLDHIGKHGLLITPENGPSVRIGAVYTDLELPYTDERVREHGWIPHFCDRCNACVRACPAQAIYITPRRENGREVHIDYKRCAVIFSRTLGCSICVKECTFTKGSYEKIKRVHEKIRNR | not soluble
MGSDKIHHHHHHMSLSRIHGDDDAFGARLDFAVNVAEAQPPTWLIQRLQSAVTDLAAYPHSSDLAAVTAMIARYHGVSEDHVLVLSGVSEGFAMLPQLKPENAVIIHPGFSEPDIVLTDAQIPVHRCILAPPFELSFENIPANADLVVIGNPTNPTGVVHSKELLAQLCAPGRTVVIDEAFLDIVGEQYSMIDQLDAVEGELIIFRSLTKTWSIAGLRVGYAIARPETLARLSAYRRHWPMGTLQLRAIEAVFDTGIMQLPERRAEMIAQRTEMIEMLTNSGFRCVSSSQAPYILVRPPSTQPEELRMALKAQGIAVRRCDTFPGLEFSYWRLAVRPRDQVQRLLTAIDNIIGAKK | not soluble
SEPIYEEYLANHGTIVKPYYWLSFSLDCSNCPYHIRTGEEARVSLTEFCQIFGFPYGTTFPQTKHLTFYELKTSSGSLVQKGHASSCTGNYIHPESMLFEMNGYLDSAIYNNDSIRHIILYSNNSPCNEANHCCISKMYNFLITYPGITLSIYFSQLYHTEMDFPASAWNREALRSLASLWPRVVLSPISGGIWHSVLHSFISGVSGSHVFQPILTGRALADRHNAYEINAITGVKPYFTDVLLQTKRNPNTKAQEALESYPLNNAFPGQFFQMPSGQLQPNLPPDLRAPVVFVLVPLRDLPPMHMGQNPNKPRNIVRHLNMPQMSFQETKDLGRLPTGRSVEIVEITEQFASSKEADEKKKKKGKK | soluble
